Results from patent US20240018502A1.

Assays:
[1] = biological target: human complement protein C3 (human) (UniProt P01024); experiment: cell-based or functional assay
[2] = biological target: plasma purified human complement protein C3 (human) (UniProt P01024); experiment: cell-based or functional assay
plasma purified human complement protein C3 (human), sequence (P01024 23-667, chain 1 of 2): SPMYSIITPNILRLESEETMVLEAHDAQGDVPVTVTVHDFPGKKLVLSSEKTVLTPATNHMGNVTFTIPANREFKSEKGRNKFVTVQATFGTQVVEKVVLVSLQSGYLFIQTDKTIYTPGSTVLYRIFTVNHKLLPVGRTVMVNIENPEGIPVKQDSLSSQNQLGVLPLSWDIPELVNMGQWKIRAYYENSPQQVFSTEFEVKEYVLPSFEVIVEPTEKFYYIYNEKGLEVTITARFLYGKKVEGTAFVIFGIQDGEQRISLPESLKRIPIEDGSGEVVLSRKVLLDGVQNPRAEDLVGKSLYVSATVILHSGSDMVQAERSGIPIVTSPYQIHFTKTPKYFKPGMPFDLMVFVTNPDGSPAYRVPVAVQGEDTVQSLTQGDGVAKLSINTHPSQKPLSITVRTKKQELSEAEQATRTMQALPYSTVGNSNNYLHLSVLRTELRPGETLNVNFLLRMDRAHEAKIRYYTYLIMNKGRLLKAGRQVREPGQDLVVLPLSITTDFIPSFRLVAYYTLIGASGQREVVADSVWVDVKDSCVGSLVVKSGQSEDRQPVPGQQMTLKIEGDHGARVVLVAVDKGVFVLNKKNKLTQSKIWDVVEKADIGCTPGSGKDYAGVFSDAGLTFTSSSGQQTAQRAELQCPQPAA
plasma purified human complement protein C3 (human), sequence (P01024 672-1663, chain 2 of 2): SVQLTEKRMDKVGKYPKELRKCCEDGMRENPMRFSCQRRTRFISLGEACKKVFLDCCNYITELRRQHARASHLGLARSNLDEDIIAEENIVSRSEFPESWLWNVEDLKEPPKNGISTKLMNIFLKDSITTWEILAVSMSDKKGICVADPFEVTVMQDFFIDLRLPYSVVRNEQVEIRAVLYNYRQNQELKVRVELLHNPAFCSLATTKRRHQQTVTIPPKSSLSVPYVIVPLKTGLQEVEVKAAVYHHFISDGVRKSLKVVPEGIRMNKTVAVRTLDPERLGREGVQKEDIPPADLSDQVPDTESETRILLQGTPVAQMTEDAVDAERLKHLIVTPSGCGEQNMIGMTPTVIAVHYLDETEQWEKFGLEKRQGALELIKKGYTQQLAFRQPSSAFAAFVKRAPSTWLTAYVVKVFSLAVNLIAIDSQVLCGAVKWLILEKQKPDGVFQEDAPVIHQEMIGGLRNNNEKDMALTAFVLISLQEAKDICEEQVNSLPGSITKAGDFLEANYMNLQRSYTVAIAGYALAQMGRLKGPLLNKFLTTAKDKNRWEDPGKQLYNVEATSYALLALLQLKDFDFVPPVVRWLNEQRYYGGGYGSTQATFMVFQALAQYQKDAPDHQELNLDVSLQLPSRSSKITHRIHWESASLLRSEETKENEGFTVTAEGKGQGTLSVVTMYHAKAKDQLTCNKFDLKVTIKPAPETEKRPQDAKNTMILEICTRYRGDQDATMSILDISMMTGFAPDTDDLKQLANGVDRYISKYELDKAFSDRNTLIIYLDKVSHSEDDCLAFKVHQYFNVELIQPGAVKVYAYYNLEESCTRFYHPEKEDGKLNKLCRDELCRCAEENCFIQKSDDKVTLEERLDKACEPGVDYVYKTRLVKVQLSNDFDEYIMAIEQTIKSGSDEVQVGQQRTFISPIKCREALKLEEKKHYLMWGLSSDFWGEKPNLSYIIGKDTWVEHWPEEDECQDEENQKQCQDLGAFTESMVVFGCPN

human complement protein C3 (human), sequence (P01024 23-667, chain 1 of 2): as the sequence (P01024 23-667, chain 1 of 2) above
human complement protein C3 (human), sequence (P01024 672-1663, chain 2 of 2): as the sequence (P01024 672-1663, chain 2 of 2) above

| EC50 of hC3 cleavage [2] [nM] | Substance | further results |
| --- | --- | --- |
| – | Q38Y/I41S/D60bT/F60eR/Y60gW/D96M/F97N/T98G/F99L/C122S/Q175L/Q192D (from UniProt Q9Y5Y6 615-855) (enzyme) | EC50 (nM), cleavage of purified hC3 in vitro [1]: 3.75 nM |
| – | MTSP-1 protease domain Q38Y/I41S/D60bT/F60eR/Y60gW/D96M/F97N/T98G/F99L/C122S/Q175L/Q192D (from UniProt Q9Y5Y6 615-855) (enzyme) | EC50 hC3 cleavage [2]: 3.75 nM |
| 7.41 | MTSP-1 H40R/I41H/Y60gL/F97D/F99L/C122S/G151N/Q175M/D217I/K224S (from UniProt Q9Y5Y6 615-855) (enzyme) | – |
| 14.9 | MTSP-1 H40R/I41H/F97D/F99L/C122S/Q175L/Q192G/D217Q/K224R (from UniProt Q9Y5Y6 615-855) (enzyme) | – |
| 1530 | MTSP-1 H40R/I41H/F97D/F99L/C122S/G151D/Q192G (from UniProt Q9Y5Y6 615-855) (enzyme) | – |
